Test results reported in patent US20140178332A1 (published 2014).

Key:
[1] = molecular target: T1, recombinant purified human IL-12 p70 (human, UniProt P29459 23-219); assay: SPR (Biacore), mAb captured on anti-mouse IgG Fc, IL-12 p70 as analyte
T1 construct: Disulfide-linked heterodimer of p35 and p40; also called hIL-12; Hu IL-12
T1 sequence 1: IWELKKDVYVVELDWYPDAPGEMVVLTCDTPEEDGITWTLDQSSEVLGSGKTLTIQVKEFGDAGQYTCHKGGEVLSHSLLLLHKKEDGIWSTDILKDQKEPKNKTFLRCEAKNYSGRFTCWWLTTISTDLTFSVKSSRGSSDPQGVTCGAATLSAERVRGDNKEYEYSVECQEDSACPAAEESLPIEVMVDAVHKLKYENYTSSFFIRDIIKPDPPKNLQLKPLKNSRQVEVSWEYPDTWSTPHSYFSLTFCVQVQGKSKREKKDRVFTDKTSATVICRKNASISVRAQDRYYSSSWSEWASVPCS
T1 sequence 2: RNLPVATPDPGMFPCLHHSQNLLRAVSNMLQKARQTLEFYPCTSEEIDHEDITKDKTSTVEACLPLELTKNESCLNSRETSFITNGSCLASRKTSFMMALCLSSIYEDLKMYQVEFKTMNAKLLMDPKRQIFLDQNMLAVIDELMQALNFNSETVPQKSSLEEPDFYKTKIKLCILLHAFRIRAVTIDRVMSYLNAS
Description: The BIACORE assay (Biacore, Inc, Piscataway, N.J.) determines the affinity of antibodies with kinetic measurements of on-, off-rate constants. Binding of antibodies to recombinant purified human IL-12 p70 or recombinant purified human IL-12 p40 were determined by surface plasmon resonance-based measurements with a Biacore® 3000 instrument (Biacore® AB, Uppsala, Sweden) using running HBS-EP (10 mM HEPES [pH 7.4], 150 mM NaCl, 3 mM EDTA, and 0.005% surfactant P20) at 25° C. All chemicals were obtained from Biacore® AB (Uppsala, Sweden) or otherwise from a different source as described in the text. Approximately 5000 RU of goat anti-mouse IgG, (Fcγ), fragment specific polyclonal antibody (Pierce Biotechnology Inc, Rockford, Ill.) diluted in 10 mM sodium acetate (pH 4.5) was directly immobilized across a CM5 research grade biosensor chip using a standard amine coupling kit according to manufacturer's instructions and procedures at 25 μg/ml. Unreacted moieties on the biosensor surface were blocked with ethanolamine. Modified carboxymethyl dextran surface in flowcell 2 and 4 was used as a reaction surface. Unmodified carboxymethyl dextran without goat anti-mouse IgG in flow cell 1 and 3 was used as the reference surface. For kinetic analysis, rate equations derived from the 1:1 Langmuir binding model were fitted simultaneously to association and dissociation phases of all eight injections (using global fit analysis) with the use of Biaevaluation 4.0.1 software. Purified antibodies were diluted in HEPES-buffered saline for capture across goat anti-mouse IgG specific reaction surfaces. Mouse antibodies to be captured as a ligand (25 μg/ml) were injected over reaction matrices at a flow rate of 5 μl/min. The association and dissociation rate constants, kₒₙ (unit M⁻¹ s⁻¹) and koff (unit s⁻¹) were determined under a continuous flow rate of 25 μl/min. Rate constants were derived by making kinetic binding measurements at ten different antigen concentrations ranging from 10-200 nM. The equilibrium dissociation constant (unit M) of the reaction between mouse antibodies and recombinant purified human IL-12 p70 or recombinant purified human IL-12 p40 was then calculated from the kinetic rate constants by the following formula: KD=koff/kₒₙ. Binding is recorded as a function of time and kinetic rate constants are calculated.

[2] = molecular target: T1, recombinant purified human IL-12 p70; assay: competition ELISA on coated human IL-12, competitor of 0.8 µg/ml biotinylated 8E1, Expt. 3
Description: MaxiSorp ELISA plates (Nalge Nunc International) were coated overnight at 4° C. with 100 μl/well of 1.0 μg/ml human IL-12 in 0.2 M sodium carbonate-bicarbonate buffer, pH 9.4, washed with Wash Buffer (PBS containing 0.1% Tween 20), and blocked for 1 hr at room temperature with 300 μl/well of SuperBlock Blocking Buffer in TBS (Pierce Chemical Company). […] As isotype controls, 100 μl/well of 100 μg/ml mouse IgG 1/κ (MuFd79) or humanized IgG1/κ (HuFd79) monoclonal antibodies in ELISA buffer was used. As a no-competitor control, 100 μl/well of ELISA Buffer was used. After incubating the plates for 1 hr at room temperature, and washing with Wash Buffer, bound antibodies were detected using 100 μl/well of 1 μg/ml HRP-conjugated streptavidin (Pierce Chemical Company) in ELISA buffer. After incubating for 1 hr at room temperature, and washing with Wash Buffer, color development was performed by adding 100 μl/well of ABTS Peroxidase Substrate/Peroxidase Solution B (KPL, Inc.). After incubating for 5 min at room temperature, color development was stopped by adding 50 μl/well of 2% oxalic acid. Absorbance was read at 415 nm.
The affinity of 8E1.4, 8E1.5 and 8E1.6 to human IL-12 was analyzed by competition ELISA as described above.

B1: murine anti-human IL-12p40 monoclonal antibody 8E1 (antibody, V domains shown)
VH: EVKLVESGGGLVQPGGSRKLSCAASGFTFSDYGMVWVRQAPGKGLEWVASISSGSSNIYYADTVKGRFTISRDDPNNTLFLQMRSLRSEDTAMYYCARNPYWGQGTTLTVSS
VL: DIVMTQSQKFMSTSVGDRVSVTCKASQNVGTNVAWYQQKPGQSPKGLIYSASHRYSGVPDRFAGSGSGTDFTLTISNVQSEDLAEYFCQQYNSYPLTFGGGTKLELKR
notes: Murine mAb; also called biotinylated 8E1
B1 gave a Kd [1] of 74 pM, a koff [1] of 5.1e-05 s⁻¹ and a kon [1] of 690000 M⁻¹ s⁻¹. The IC50 [2] was 2.28 µg/mL.
